Results as given in patent US6794159.

B1: Aeromonas aminopeptidase (protein)
chain: MPPITQQATVTAWLPQVDASQITGTISSLESFTNRFYTTTSGAQASDWIASEWQALSASLPNASVKQVSHSGYNQKSVVMTITGSEAPDEWIVIGGHLDSTIGSHTNEQSVAPGADDDASGIAAVTEVIRVLSENNFQPKRSIAFMAYAAEEVGLRGSQDLANQYKSEGKNVVSALQLDMTNYKGSAQDVVFITDYTDSNFTQYLTQLMDEYLPSLTYGFDTCGYACSDHASWHNAGYPAAMPFESKFNDYNPRIHTTQDTLANSDPTGSHAKKFTQLGLAYAIEMGSATGDTPTPGNQ
B2: Cu2+-substituted Aeromonas aminopeptidase (protein)
chain: B1 chain

Target: Alanyl-human growth hormone

Protein | % cleavage (batch mode, 4-6° C., 16 hrs) [%] | % cleavage (batch mode, 4-6° C., 54 hrs) [%] | % cleavage (batch mode, 4-6° C., 89 hrs) [%] | % cleavage (batch mode, ambient, 16 hrs) [%] | % cleavage (batch mode, ambient, 54 hrs) [%] | % cleavage (batch mode, ambient, 89 hrs) [%] | % cleavage (recirculation, 28° C., 2.92 hrs, 1.06 passes, RP-HPLC) [%] | % cleavage (recirculation, 28° C., 5.73 hrs, 2.08 passes, tryptic map) [%] | % cleavage (recirculation, 28° C., 15.57 hrs, 5.66 passes, tryptic map) [%] | % cleavage (recirculation, 28° C., 17.73 hrs, 6.45 passes, tryptic map) [%] | % cleavage (recirculation, 28° C., 20.4 hrs, 7.42 passes, tryptic map) [%] | % cleavage (recirculation, 28° C., 23.4 hrs, 8.8 passes, tryptic map) [%] | % cleavage (recirculation, 28° C., 24.4 hrs, 8.87 passes, tryptic map) [%] | % cleavage (recirculation, 28° C., 39.7 hrs, 14.44 passes, tryptic map) [%] | removal of Ala from Ala-hGH by AAP in free solution (Ala-hGH 3 mg/ml; AAP 2.0, 3.0, 4.0 units/ml; room temperature; ES/MS) | rate of Ala-hGH cleavage, batch and recirculating column modes, compared with Zn-AAP (RP-HPLC)
B1 | 48 | 65 | 75 | 82 | > 97 | > 97 | > 93 | > 96.1 | > 98.6 | > 98.6 | > 98.6 | > 98.8 | > 98.8 | > 99.2 | Most of the reactions for the three highest concentrations of AAP were complete by 6 hours | –
B2 | – | – | – | – | – | – | – | – | – | – | – | – | – | – | – | Cu^2+-substituted AAP was the most active against Ala-hGH
